Data from paper PMC6239180.

Tests used:
[1] = biological target: T1, hClp1 (CF II subunit or alone) (human) (UniProt Q92989); assay: filter binding
T1 sequence: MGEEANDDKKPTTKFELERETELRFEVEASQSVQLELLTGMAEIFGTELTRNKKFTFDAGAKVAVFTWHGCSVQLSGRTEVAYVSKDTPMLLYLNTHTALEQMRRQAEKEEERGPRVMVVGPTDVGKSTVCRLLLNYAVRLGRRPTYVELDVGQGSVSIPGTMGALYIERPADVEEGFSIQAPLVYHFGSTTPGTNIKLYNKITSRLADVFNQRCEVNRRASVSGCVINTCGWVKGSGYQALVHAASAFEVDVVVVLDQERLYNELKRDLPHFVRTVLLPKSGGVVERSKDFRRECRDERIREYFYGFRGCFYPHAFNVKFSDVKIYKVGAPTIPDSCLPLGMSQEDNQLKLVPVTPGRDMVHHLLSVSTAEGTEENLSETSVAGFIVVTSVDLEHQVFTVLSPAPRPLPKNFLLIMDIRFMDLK

[2] = biological target: hPcf11 (CF II subunit);hClp1 (CF II subunit or alone) (human;human) (UniProt O94913+Q92989); assay: filter binding
hPcf11 (CF II subunit);hClp1 (CF II subunit or alone) (human;human), sequence (O94913 whole entry, one chain of several): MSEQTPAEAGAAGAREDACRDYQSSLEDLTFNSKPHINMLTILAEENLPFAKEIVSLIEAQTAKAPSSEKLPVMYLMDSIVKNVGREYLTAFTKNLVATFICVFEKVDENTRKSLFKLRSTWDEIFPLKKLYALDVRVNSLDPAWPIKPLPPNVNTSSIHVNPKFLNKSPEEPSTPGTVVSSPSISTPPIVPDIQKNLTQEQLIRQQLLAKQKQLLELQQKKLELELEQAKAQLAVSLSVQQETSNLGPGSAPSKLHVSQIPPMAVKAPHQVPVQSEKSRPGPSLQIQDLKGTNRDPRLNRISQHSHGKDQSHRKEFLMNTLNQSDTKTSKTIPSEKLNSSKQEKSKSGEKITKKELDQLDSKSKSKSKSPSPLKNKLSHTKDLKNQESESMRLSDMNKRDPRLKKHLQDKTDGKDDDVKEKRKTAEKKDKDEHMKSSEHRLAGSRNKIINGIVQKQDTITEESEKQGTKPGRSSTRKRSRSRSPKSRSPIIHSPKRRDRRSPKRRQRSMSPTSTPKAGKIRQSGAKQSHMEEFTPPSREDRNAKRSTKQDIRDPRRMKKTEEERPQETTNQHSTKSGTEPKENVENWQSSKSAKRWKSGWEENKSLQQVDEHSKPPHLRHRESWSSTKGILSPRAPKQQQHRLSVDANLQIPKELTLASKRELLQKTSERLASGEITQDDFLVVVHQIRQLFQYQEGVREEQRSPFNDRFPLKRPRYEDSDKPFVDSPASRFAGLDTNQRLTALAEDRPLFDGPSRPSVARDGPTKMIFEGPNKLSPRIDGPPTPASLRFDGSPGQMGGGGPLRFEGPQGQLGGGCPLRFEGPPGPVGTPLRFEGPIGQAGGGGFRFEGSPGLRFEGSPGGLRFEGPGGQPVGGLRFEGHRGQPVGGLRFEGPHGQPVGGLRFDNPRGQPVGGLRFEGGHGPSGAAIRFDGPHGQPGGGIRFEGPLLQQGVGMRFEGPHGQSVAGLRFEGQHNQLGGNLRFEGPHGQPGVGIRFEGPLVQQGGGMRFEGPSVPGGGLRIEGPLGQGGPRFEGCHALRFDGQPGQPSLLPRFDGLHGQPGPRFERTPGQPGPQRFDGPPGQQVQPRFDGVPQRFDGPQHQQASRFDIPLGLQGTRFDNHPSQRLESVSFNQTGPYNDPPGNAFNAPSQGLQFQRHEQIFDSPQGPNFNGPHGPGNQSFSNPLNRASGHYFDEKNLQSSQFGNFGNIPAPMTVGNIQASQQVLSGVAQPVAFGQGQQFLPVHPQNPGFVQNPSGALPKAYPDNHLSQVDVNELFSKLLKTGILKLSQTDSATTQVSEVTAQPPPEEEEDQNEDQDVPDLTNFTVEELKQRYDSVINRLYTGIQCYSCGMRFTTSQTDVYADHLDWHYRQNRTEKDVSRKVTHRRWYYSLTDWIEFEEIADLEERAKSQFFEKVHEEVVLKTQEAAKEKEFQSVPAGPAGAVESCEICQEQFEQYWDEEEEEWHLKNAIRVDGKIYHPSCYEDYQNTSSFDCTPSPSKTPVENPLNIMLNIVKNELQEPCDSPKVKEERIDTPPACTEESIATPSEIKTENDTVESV

Row | Substance | K half [1] [nM] | K half [2] [nM]
1 | SV40 late RNA | 140 | 0.4
2 | L3 RNA | – | 0.9
